These results are taken from PMC6733660 (Virology, 2019).

T1: Pep-8 (gp350 aa 142–161) (Epstein-Barr virus, strain B95-8)
T1 chain: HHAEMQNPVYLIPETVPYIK

B1: HB2 (antibody, V domains shown)
VH: ELKKPGETVKISCKASGYTFTAYSMHWVKLTPGKGLKWMGWINTKTGEPTYADDFKGRFAFSLETSASTAYLQINNLKNEDTATYFCAPYGYALDYWGQGTSVTVSS
VL: ILSASPGEKVTMTCRATSSVNYMHWYQQKPGSSPKPWIYATSNLASGVPARFSGSGSGTSYSLTISRVEAEDAATYYCQQWSSNPPTFGAGTKLELK
B2: HB6 (antibody, V domains shown)
VH: B1 VH with K3R, A22D, L30Q, K45R, T50R
VL: B1 VL
B3: HB14 (antibody, V domains shown)
VH: SGAELVRPGASVNLSCKALGYTFTDYEMHWVKQTPVYGLEWIGTIHPRRGGTAYNQRFKGKAALTADKSSSTAYMELSSLTSEDSAVYYCARYGYPWYFDVWGAGTTVTVSS
VL: SLPVSLGDQASISCRSSQSIVHDNGNTYLEWYLQKPGQSPKLLIYKVSNRFSGVLDKFSGSGSGTDFTLKISRVEAEDLGIYYCFQGSHVPPTFGGGTKLEIK
B4: HB22 (antibody, V domains shown)
VH: GLVAPSQSLSITCTVSGFSLTNYGIHWVRQPPGKGLEWLVVIWSDGSTIYNSALKSRLSISKDNSKSQVFLKMNSLQTDDTAMYYCARNYYGNSYPAWFAYWGQGTLVTVSA
VL: B3 VL with D23S, L55P, K57R, K70R, I81V, P92W
B5: HB17 (antibody, V domains shown)
VH: ELVIPGASVKVSCKASGYTFTSYWIHWVKQWPGQGLEWIGEINPNNGHTNYNEKFKSKATLTVDKSSSTAYMQLSSLTSEDSAVYYCARNLFYYSRPDYWGQGTSVTVSS
VL: SLSASLGDRVTISCRASQDIGNYLNWYQQKPDGTIKLLIYYTSRLHSGVPSRFSGSGSGTDYSLTISNLEEEDIATYFCQQGNTLPPTFGGGTKLEIK
B6: HB3 (antibody, V domains shown)
VH: B5 VH with I4R, V11L, T21A, I25M, H26Q, K54R, S57N, T60S, F92Y, S95G
VL: B5 VL
B7: HB10 (antibody, V domains shown)
VH: B5 VH with I4R, V11L, I25M, L36P, N45S, K54R, S57N, F92Y, S95G
VL: B5 VL with I35V
B8: HB8 (antibody, V domains shown)
VH: ELKKPGETVKISCKASGYSFTNYGMNWVKQAPGKGLKWMGWINTYTGEPTYADDFKGRFAFSLETSASTAFLQINNLKNEDTATYLCARYYYGSVYSAWFAYWGQGTLVTVSA
VL: LSLPVSLGDQASISCRSSQSIVHSNGNTYLEWYLQKAGQSPKLLIYKVSNRFSGVPDRFGGSGSGTDFTLKISRVEAEDLGVYYCFQGSHVPYTFGGGTKLEIK
B9: HB9 (antibody, V domains shown)
VH: GGLVKPGGSLKLSCAASGFTFSSYTMSWVRQTPEKRLEWVATISSGGSYIYYPDSVKGRFTISRDNAKNTLYLQMSSLKSEDTAIYYCTREDFYYGSSYGFFDVWGAGTTVTVSS
VL: B8 VL
B10: HB7 (antibody, V domains shown)
VH: ELVRPGASVKLSCKALGYTFTDYEMHWVKQTPVHGLEWIGTISPGRSGTAYNQKFKGKATLTADKSSRTAYMELNSLTSEDSAVYYCSRYGHPSYLDVWGAGTTVTVSS
VL: FMSTSVGDRVNITCKASQSVGNAVAWFQQKPGQSPKLLIYSASNRYTGIPDRFTGSGSGTDFTLTCNNMQSEDLADYFCQQYSSYPLTFGAGTKLELK
B11: humanized 72A1 (h72A1) (antibody, V domains shown)
VH: EVQLVESGGGLVQPGGSLRLSCAASGSSFTDYTMNWMRQSPGKGLEWIGLINPYNGGTRYADSVKGRATLSLDKSKNTAYLQMNSLRAEDTAIYYCAGGLRRVNWFAYWGQGTLVTVSS
VL: DAQLTQSPILLSASVGDRVTITCRSSTGAVTTSNYANWVQERTNGSFRGLIGGTNNRVPGVPSRFSGSLSGDDATLTISSLQPEDEADYFCVLWHSNHWVFGAGTKVEIK
B12: HB5 (antibody, V domains shown)
VH: ELVRPGASVKISCKAFGYTFTNHNINWVKQRPGQGLDWIGYINPYNDYTSYNQKFKGKATLTVDKSSNTAYMELSSLTSEDSAVYYCARSEGWLRRGAWFAYWGQGTLVTVSA
VL: ILSVSPGERVSFSCRASQSIGTSIHWYQQRTNDSPRLLIKYASESISGIPPRFSGSGSGTDFTLSINSVESEDIADYHCQQSNSWPMLTFGAGTKLELK
B13: HB20 (antibody, V domains shown)
VH: B5 VH with I4K, V11L, H26Q, W31R, N45T, S57T, Q73R, F92Y, S95G
VL: B5 VL with I35V, E71Q, T84A
B14: HB11 (antibody, V domains shown)
VH: SLVKPSQTLSLTCSVTGDSITSGFWNWIRKFPGNKLEYMGYISYSGSTYYNPSLKSRISITRDTSKNQYYLQLNSVTTEDTATYYCARGNGGNYDWYFDVWGAGTTVTVSS
VL: IMSASLGEKVTMSCRASSSVNFMNWYQQKSDDSPKLLIYYISNLAPGVPARFSGSGSGNSYSLTISGMEGEDAATYYCQQFTSSPSWTFGGGTKLEIK
B15: murine 72A1 (m72A1) (antibody, V domains shown)
VH: EVQLQQSGPELVKPGTSMKISCKASGSSFTDYTMNWMKQSHGKNLEWIGLINPYNGGTRYNQKFKGKATLTLDKSSSTAYMEVLSLTSEDSAVYYCAGGLRRVNWFAYWGQGTLVSVSA
VL: QAVLTQESALTTSPGETVTLTCRSSTGAVTTSNYANWVQEKPDHLFTGLIGGTNNRVPGVPARFSGSLIGDKAALTITGAQTEDEAIYFCVLWHSNHWVFGGGTKLTVL

Changes are numbered by the printed parent chain.

T2 sequence (P03200 4-863): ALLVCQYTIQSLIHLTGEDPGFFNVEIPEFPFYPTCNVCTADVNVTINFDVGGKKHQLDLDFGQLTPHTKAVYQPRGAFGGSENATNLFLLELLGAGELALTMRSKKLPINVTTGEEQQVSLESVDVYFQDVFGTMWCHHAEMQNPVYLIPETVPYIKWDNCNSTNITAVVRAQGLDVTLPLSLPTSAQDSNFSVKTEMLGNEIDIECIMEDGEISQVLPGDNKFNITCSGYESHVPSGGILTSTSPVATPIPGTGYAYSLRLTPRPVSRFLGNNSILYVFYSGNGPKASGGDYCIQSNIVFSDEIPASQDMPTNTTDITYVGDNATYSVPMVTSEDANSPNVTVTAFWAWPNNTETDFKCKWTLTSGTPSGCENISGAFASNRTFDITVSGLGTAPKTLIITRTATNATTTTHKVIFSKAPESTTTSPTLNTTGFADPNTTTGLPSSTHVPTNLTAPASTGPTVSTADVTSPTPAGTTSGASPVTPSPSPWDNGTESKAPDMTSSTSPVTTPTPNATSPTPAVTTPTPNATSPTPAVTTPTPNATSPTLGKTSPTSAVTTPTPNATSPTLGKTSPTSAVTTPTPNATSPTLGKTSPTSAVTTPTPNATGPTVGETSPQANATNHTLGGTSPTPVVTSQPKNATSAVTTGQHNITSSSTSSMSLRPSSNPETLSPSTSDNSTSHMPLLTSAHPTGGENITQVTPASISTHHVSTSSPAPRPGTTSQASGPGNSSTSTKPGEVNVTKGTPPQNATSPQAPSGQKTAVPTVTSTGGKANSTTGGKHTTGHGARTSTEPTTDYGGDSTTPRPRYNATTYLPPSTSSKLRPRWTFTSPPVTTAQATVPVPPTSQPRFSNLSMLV

The first assay addresses T2, recombinant EBV gp350 ectodomain (aa 4–863) (Epstein-Barr virus, strain  …, UniProt P03200-1). The experiment in a line: ELISA. In general terms: An ELISA detects its analyte on a solid surface through an enzyme-linked reagent.
For the molecule B1, the binding result was “binds”.
With B2, the binding result is given as “binds”.
On the same count and under the same terms, the value for B3 was “binds”; that for B4 was “binds”; that for B5 was “binds”.
On the same count and under the same terms, the value for B6 was “binds”.
On the same count and under the same terms, with B7 the entry was “binds”; with B8, “binds”; with B9, “binds”.
Consider B10, for which the binding result was “binds”.

The target in the next assay is T2, recombinant EBV gp350 ectodomain (aa …). Briefly: ELISA. This is another data set of the same source.
Consider B11, for which the binding result was “binds”.

A further assay deals with T1, Pep-8 (gp350 aa 142–161). Briefly: ELISA.
Consider B12, for which the binding result is “binds”.
Still for that read-out and setting: the value for B13 was “binds”; that for B14 was “binds”.
Take B11: the binding result is “binds”.
On the same count and under the same terms, the value for B15 was “binds”.
